Assay [1] deals with WT CXCR4 with an N-terminal 3xHA-tag (human) (UniProt P61073). The assay is described as follows: cell-based or functional assay.
Assay [2] concerns the target CLdes CXCR4 sensor (Cdes2 design combined with H113N) (human). Nature of the assay: cell-based or functional assay.

The text below walks through data of patent US20250210128A1, “COMPUTER-IMPLEMENTED DESIGN OF PEPTIDE:RECEPTOR SIGNALING COMPLEXES FOR ENHANCED CHEMOTAXIS” (Ecole Polytechnique Federale de Lausanne (EPFL), priority 2022, published 2025).

Chain of WT CXCR4 with an N-terminal 3xHA-tag (human) (P61073 other isoform, or with tags, fused parts or gaps): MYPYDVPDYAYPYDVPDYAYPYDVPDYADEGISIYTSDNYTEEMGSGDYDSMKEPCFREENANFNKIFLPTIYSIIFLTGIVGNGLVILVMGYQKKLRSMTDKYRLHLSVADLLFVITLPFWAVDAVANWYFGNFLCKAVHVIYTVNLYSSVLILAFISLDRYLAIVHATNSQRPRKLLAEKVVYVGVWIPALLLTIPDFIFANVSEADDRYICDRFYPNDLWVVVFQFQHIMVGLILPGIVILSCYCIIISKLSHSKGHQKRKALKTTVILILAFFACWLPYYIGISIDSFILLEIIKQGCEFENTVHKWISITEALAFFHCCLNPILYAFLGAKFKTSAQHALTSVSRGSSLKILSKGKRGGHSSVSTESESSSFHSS

Consider “full-length wild-type CXCL12 chemokine (from UniProt P48061 22-93) (ligand)”, for which the migration of transduced primary human T cells (Boyden chamber, migration index over no-chemoattractant control) was 1.5 fold in assay [1] and less than 5 fold in assay [2].
